Source: the DeepSol protein solubility set

experiment: soluble on expression in E. coli; label from the status in PepcDB or PDB records

Row | Sequence | soluble on expression in E. coli
1 | MGSDKIHHHHHHMNTRNDNSKILEIYKMKLFGELVKAVWNDDIEDIENLPNKILNEDLKDNLNNYFSGKFDKDTMVNLIRVTMGLDVTEDTDKNLKESLHEAVNLDEVKRPIISVISDACKYCDENNKEDESCKIRSKHINCNEEDVCSACGDCVSRCKLGAISDKIEFIPMIKLLKDIKSPVYAIVAPAFVGQFGKDVSPGKLRTALKKIGFEDMIEVALAADMLTAKEAYDYYEHMKKDEEGCFITSCCCPIWVSLIQNSFPQILENVSPSVSPMIACGRAVKILNPDAKVVFIGPCMAKKKEAMLEDIKDAVDFVLTFKELQEIFDALELNPAIMDESNRVEASLSGRVYARTGGVSKAVKLSVRRIDKNIKFEEKAFEGTKECMDGLKKVLNKEIEATFIEGMGCVGGCVGGPKRILSVEEGTKNVDEYSESTNMETPFDNLNVLQFLTSLGIKRVESLGEKEEEKVKKIFSRDIKSNKKENKYKK | not soluble
2 | MTELAQLQASTEQAAALLKAMSHPKRLLILCMLSGSPGTSAGELTRITGLSASATSQHLARMRDEGLINSQRDAQRILYSIKNEAVNAIIATLKNVYCP | not soluble
3 | MGSDKIHHHHHHMTMTFALRDPAQVLARALELRVDVSPETAEVEHELGALHDRMRRPGDRLHDMPHMPSGLPGLRLRYREADGEIFVYVEDVASRQLAGYTVFNRLIEVGRRADPWVRSPHTKFAPPYQRLGLASGLYRWALDGGLCLLSGARQSAGAHALWQSLGRRYALGYVDLRYKTLTSLGEQVSAVVKDDLHTRMLLLGHGWTLGRFKEATGMY | not soluble
4 | MAHHHHHHMSRYVKYFVQAKRLDKRKRKFGQMDFLELSKELSIPFPLRERNQPKHLDLSKYLNIKVGDLVKVLYGPYKDKEGIVLNINTKRNTVIVDGCNMKKSAWNVTKKNAGSIITQEMPIHITNVAILDPISKKATVVKRRYMMHGECVRISKISGCAMPEPVSVQALKEQNNYELFIHKKKTGPPIKDIYAERDSKNFNLLKKIAYEIKRRRFYEMKNFFRDASPGKGSASPGGGSASLGEGSSSLEG | not soluble
5 | MSLRIGIVGVGFSEFRIHEEPFYNVAFLAAKRALEDAGIERGEVDSFILGGYDNLGVGRTISNMYTAPAAGAYLRHEIRVSDDALFALPLAFMKVKSGSEITMLLAFGHSSETPIELVELQSLDPFFHRPFNLSLPVFFAMQSYAYRERYGVKEEKIAEVVVRMREKGAKNPRAYIREKVSVEDVLSSEVVSSPLRRLEMAEWCDGCVAFILAEETVARRLSDSPVWVSGLGWSAENYYFDRSLHDLPFVAKSAEMAFKMSGKERKDVEALEISDLTADYYCMILEALGFAETGRGWEFNGDVNFSGGALCTNAYGSTGAFLLASIVERIRKGEIECGMAQSMSGYAQKSCVAILEGEGHHHHHH | soluble
6 | YFSAICQARKNVYIETPYFIPDESLLKAIKSAALSGVDVRIIFPKIADHKIVNIASYSYFEEILRAGGKVYLYNKGFIHSKVVIIDDKIASAGTANMDLRSFMLNFEVNAFIYDEEVIRVMTDDFFEDLSYCEELNLEVFKNRNIIQKIKESVARLFSPIL | soluble
7 | MGSDKIHHHHHHVLNLGHKLLQYEAQKLISFHTPGHKGKAEFFTDLHFPDQDLTELPGLDMLHSPAGVIAQAQARAAAVYQSDASFYLINGATVGNQGMFMALAGTGKRGKDLQLPKVLVERQSHRSVFSALVLSGCEPEYIPSVVHPEFGLPLGLKSIAEVDLGEFLGVHLTYPGYYGTLPDLAMIAAQRDRQAVQVSILVDQAHGSHYLSPLFPKGALAYGADLVLCSTHKTLSALTQAAMLHVQGSRIPLSALKEALELLQSSSPSYLLMASLERAVEHALESRRWELLHEAVQELHHRVGGSLRILNPQDVGTYGIAGLDWTKIMINTQRLGVAAPRCVEHLRKSYGIDPELWDDKNILFLLGIGNTPEEVEILTKGLLSLASLNKDVVASPEEMVFEIPLPPVRLTPRQAYFARKRKIPLAESVGHIVGESISPYPPGIPWIVMGEEMTPEILELLTRHKGRWQGWEDAGQGVWIIEEV | not soluble
8 | WYKDRGVYHWLSSGQEGTDIPYLGSSVFCSELYEKQMELIRLQHQKLHETEAKLDARVTYMNQWVHQVKTPLSVINLIIQEEDEPVFEQIKKEVRQIEFGLETLLYSSRLDLFERDFKIEAVSLSELLQSVIQSYKRFFIQYRVYPKMNVCDDHQIYTDAKWLKFAIGQVVTNAVKYSAGKSDRLELNVFCDEDRTVLEVKDYGVGIPSQDIKRVFDPYYTGENGRRFQESTGIGLHLVKEITDKLNHTVDISSSPGEGTSVRFSFLTK | not soluble
9 | MNHDIPALALGPQGEVMAHAIDACVHCGFCLPACPTYALLGDEMDSPRGRIVLMKEVLEGSLELEDAAPHLDRCLGCQGCVTACPSGVPYGELITSFRGWSEPQRERTPLDRAKRYAILKALPAPKLFSVAARVGQFAKPLAPALPAALKAPLDLLPEHVPAMQPQPRVTPARGQRRGRVAFLAGCAQQALTPNFNAATLRVLSRNGIEVVIPEGQGCCGAAALHTGARDEALRLVRANLAAFNPDEYDAILSNAAGCGAGLKEYPVVLHGLPDEAQAQAFAAKVQDISEYLAGLLRDGELAPLMPTREPVKVAYHDACHLAHAQGVRSAPRELLRAIPGVTLTEIPEGDLCCGSAGTYNLEQPELANQLGQRKAKNILGTQPDLIASGNIGCHTQIQSHVRRQGSPVPVMHTVEVLDLAYRGELLEHHHHHH | not soluble
10 | PVYAGGQVARGGQLGVLGNADIMDVPFTMTSYTEQLIEDQQAEDVGDVLLNDASVRQSSGYANASKIFVIRGLKLTTDDISYNGLYGVLPRQIISTDALERVEVFKGPNA | not soluble
11 | MCMDSNVSWMIREKIERTIKNLEKNNIEAYNVKNSKQLIELIDKLIPEGETVAVGGSMTLFETGIIDHIRSKNYNFLDRYKEGLSKEDIKDVFRKSFFADSYIVSTNALTENGELYNVDGNGNRVAAMLFGPDKVIVIAGINKIVKDVDEAIKRNKFVSAPINAKRLNKATPTKVGYCMDCKSQDRICNEYTLIKRQGVKGRIKVIIVEEELGYLEHHHHHH | soluble
12 | MPLSYYEKGIMYKRKNFMGPAVKCFEEARKLEEKVGSKASLELAKIYAYFKDYEEAYKYCKEAISKSNYIEAYYLMVRILLLSNTPINEILKKAGKVKIHNSLLADIFCFEGNYEVALKIIDTCLKEDEVTRDLELIKIKCLLKLKQYDKCKDYIDNFSQSYLYFFKIRMYKVICCVLLEEYRLAWKIIDEFDYKKLSLYNKNKLKAYINFYNAALDIRGITPHENDEEYYSCIFEIIDILLATKEIKCLKKLIQTISKYDGGYLELAELYSNYGYVSEAKKLIVLYIKKFEVVNNKMIYILQKLEHHHHHH | not soluble
13 | MSLTVSPLSGSLTPIGSEVKRGAELAVQEQAAAFKALGYDLVLTPYDDQASATLAPQIARTIVADKNVLGVVGALNSSVSNVIAQAFGPAKLAMISPASTGDQLTQNGWNHFSRVVAPDSAQGVAAADYIAEELKAGSVVVISDNTAYGNGLTRVLMANLKKRKVPVAAYMGASTPAQIAEAVKRVKASSADVVYFGGTDDTGSQLVKALRAAGVTATFMGGDGLDSPSFLQRAGIAGAGVVYSTVFGPVSAFSNALDFSDRYRAAYKTKPSGVAVYAYDATNTLLSAIKAAAGNSRTLPTRAEVSAAVRKVNLPACFSADKSRCATITGAIAFSDSGERLRSRVMIMRFDDVLQPQVAKVQTVNAESLKEGHHHHHH | soluble
14 | MTATHDTIRLAEIAAKAAAEKLATNIAVIDVSDVMAISEVFVLASADNERQVRSIVEEIEDMLTAEGEEPKRREGNRENRWVLLDYGMLVIHVQRNTERDFYGLDRLYQDCPLIEVEGIDTMARPEEWAQDVDVRTVESLDEIPLAGEEPADEEF | not soluble
15 | MGQLFSSPQSEHQDLASSFTEYFKKFKTGNKIISQDIITLVELSLAKGNIQEANSAIRNALKEIDSTPLNVAVTGESGSGKSSFINTLRGIGHEEKGAAKTGVVEETMERHPYKHPNMPNVVFWDLPGIGTQTFPPKTYLEKMKFYEYDFFIIISATRFKKNDIDLAKAISMMKKEFYFVRTKVDSDLNNEEDFKPQNFDREKVLQNIRLNCVNTFKENGIAEPQIFLVSNKNVCHYDFPVLIDRLISDLPLYKRQNFMLSLPNITESAIEKKQQFLKQSIWLEGFAPDLLSIKPSLAFLNSDLETLEKSMKFYRSVFGVDEASLKSLATAWKIPVDQVEAMMKSPAVFKPTDEETIQERLSRYVLEICFANRYLFRKNLFLRNVFYLKYYFLDMVTEDAKTLLKEIYLRNKLPSN | not soluble
16 | MTMIMRSIIDSLEALFSSFFSSIAPNLYEVLNFHCKKHTGMNFAEATLKNPKLTYEFLVKFFDSEMAVDVLDYLLSNFLKKYSIRAYGILKSFKSGDNKKLIEVAKLYSKVMQNGGGKDRD | not soluble
17 | MGSDKIHHHHHHMSILNVEHLSHGFGDRAIFEDVSFRLLKGEHIGLVGANGEGKSTFMNIITGRLMPDEGKIEWAKKVRVGYLDQHTALEKGMTIGSVLSSAFDFLYDMENEMNDIYARLGDVDEDEMNKLMEEAGTIQDMLTMHDFYMIDAKVEEVARALGLLDLGLDKDVTDLSGGQRTKVLMGKLLLEKPDILLLDEPTNYLDVEHIEWLKRYLNDYENAFILISHDIPFLNSVVNLIYHMDNKKLDRYVGDYDKFMEVYEMKKAQLEAAYNKQQQEIKELKDFVARNKARVATRNMAMSRQKKLDKMDVIELAAEKPKPEFNFKTARTPGRYIFQTNGLVIGYDDPLSSALDLEMERGQKIVLTGANGIGKTTLLKSILGLIKPLSGSVTLGDYLEIGYFEQEMDQSVTTTCIEEIWNEFPAFSQYEVRSALAKCGLTTKHIESQVRVLSGGEQAKVRLCKLINRETNILLLDEPTNHLDVDAKDELKRALKEYKGSILMVCHEPDFYDGLATDVWDCSKWTTRL | not soluble
18 | MMGSKMASASRVVQVVKPHTPLIRFPDRRDNPKPNVSEALRSAGLPSHSSVISQHSKGSKSPDLLMYQGPPDTAEIIKTLPQKYRRKLVSQEEMEFIQRGGPE | soluble
19 | ARKRFAGLEPVEMRMEVKAGDHGNTIINDVYSNDVYSLTLALDFQRRRTAETCLKKVLILSDILQSGMPPEELYRHVAGQLQVYALDFFVGIGEEIASHRTCFAGMSAVFFKDVATFLTSGEIERFSNSCILLKGARKYRFEQITERLVQQVH | not soluble
20 | MTHFKGGTMSQFEKYHPILTPHYTFDWLTKVRVIDVFNLYQTSNATATMETTAAQINHTMREIFHDHQLVWGVTARDTNAFVGQVGFAPIDTAKHEATLSVDLTATYQQVTTLREILERLVAFGTVELKLNRLTLILPKHDDLMAQILAGLNFSTTDHLTFNYHQ | not soluble
21 | MSLLNTYEPWKFAFSQEETDFNNLKEGAWGIIGVPFDSTTSYHPGSRFGPIVVREASYGFEKYNTIFNTQLDNIFYDFGDVNVVFGNCKKTCDIIEDTVNELSDLKIKPLTIGGEHSLTIGVLNSLTKKYDDLTVVHLDAHRDLADTFIGELYSHASVMKRVHEMGVKELVQIGIRSASKEEEDFVKNQSNITTFKNNDVFHHLDNIEYYLSIIDTPIYLSIDMDVFDPSIAPTVGNPTPNGIAYGHIEAMLQTLSLKNVVGMDVVETAGDRLGDITAVSASKIIYDFLSLLEGHHHHHH | soluble
22 | MRDIQMVLERWGAWAANNHEDVTWSSIAAGFKGLITSKVKSRPQCCDDDAMIICGCMARLKKNNSDLHDLLVDYYVVGMTFMSLAGKHCCSDGYIGKRLQKAEGIIEGMLMALDIRLEMDIVVNNSNLEHHHHHH | not soluble
23 | MGSDKIHHHHHHMSKAYSSNLTQDQWELLEPLIPVGKTGGRPRVVEMWQVINAIFYVLTQGCTWRNLPGDLPNWQTVYTYFRNWRKDGTWVSIHDQLRDWERVNNERAVSPTEAIIDSQSVKTAAMVTQQVGYDAGKKVKGRKRFLTVDTLGLVLPVLVSAASVDERSGGKLLLQKVKQMGDKVSRLNLIWVDGGYDGNPFMQWVMDFYRWVVQVVLRPRERKGFVLLPKRWVVERTFGWLTGCRRLNKDYELLPETAENFIYLAMIRIMVRRLA | not soluble
